Data from the supplement of paper PMC10126150.
± gives the standard deviation of the averaged measurements.

System: ATP
Assay: switch fluorescence ratio, 500 uM ATP over buffer (Cy3 cluster intensity, sum of 5 cycles each) (fold (ratio)); higher = stronger signal-on switching upon ATP binding; sequences stand for … in TCGTCGGCAGCGTCAGATGTGTATAAGAGACAGTTTTTTTTTTTTTTTTTTTTTTTTT…TC
Conditions: aptamer strand: ATP DNA aptamer (quencher-CACCTGGGGGAGTATTGCGGAGGAAGG + anchor), 100 nM annealed; ATP concentration: 500 uM
Summary of the method: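 After annealing to 100 nM quencher-labelled ATP aptamer, Cy3-labelled switching-strand clusters on a modified Illumina MiSeq flow-cell were imaged in selection buffer. A second image followed after 15 min with 500 uM ATP at 22 °C, and five such buffer/ATP cycles were done, each separated by NaOH stripping and re-annealing. The fluorescence ratio, averaged per switch-domain sequence, is summed target-cycle over summed buffer-cycle Cy3 intensity per cluster, with clusters outside 100-1000 RFU excluded.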
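Note: ATP exposure 15 min at 22 °C before imaging.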

Sequence | switch fluorescence ratio
TGGTTCGTCT | 0.955 ± 0.058
TGGTTCTGTT | 0.975 ± 0.018
TGGTTGAACG | 0.996 ± 0.019
TGGTTGAGGC | 1.01 ± 0.021
TGGTTGATAG | 0.9916 ± 0.0065
TGGTTGCCTG | 0.993 ± 0.056
TGGTTGCTTG | 1.01 ± 0.034
TGGTTGGAAG | 0.987 ± 0.016
TGGTTGGCTC | 0.985 ± 0.042
TGGTTGGGTA | 0.997 ± 0.018
TGGTTGTTAG | 1.012 ± 0.0073
TGGTTTACTA | 1.009 ± 0.0096
TGGTTTATAC | 1.32 ± 0.43
TGGTTTATGG | 1.01 ± 0.02
TGGTTTATTT | 0.976 ± 0.01
TGGTTTCTTG | 0.963 ± 0.042
TGGTTTGGCC | 0.97 ± 0.018
TGGTTTGGTT | 0.986 ± 0.04
TGGTTTGTGT | 0.981 ± 0.018
TGGTTTTAAT | 0.973 ± 0.028
TGGTTTTAGA | 0.999 ± 0.016
TGGTTTTAGG | 0.99 ± 0.029
TGGTTTTCGG | 0.993 ± 0.041

Sequence | switch fluorescence ratio
TGGTTTTCTT | 0.992 ± 0.03
TGGTTTTGGT | 0.987 ± 0.025
TGGTTTTGT | 1.03 ± 0.066
TGGTTTTTAG | 1.05 ± 0.033
TGTAACTCAT | 1 ± 0.011
TGTAAGACCA | 1.01 ± 0.012
TGTAAGGAAC | 1.26 ± 0.35
TGTAAGGATG | 0.996 ± 0.013
TGTAAGGGTG | 0.974 ± 0.065
TGTAATATGG | 1.1 ± 0.14
TGTAATCCGC | 1.28 ± 0.021
TGTAATGTGA | 1.07 ± 0.14
TGTACGTTGG | 1.26 ± 0.37
TGTACTTTGG | 1.01 ± 0.022
TGTAGCGGGG | 0.9942 ± 0.0048
TGTAGGAGGG | 0.993 ± 0.01
TGTAGGAGTG | 1.25 ± 0.36
TGTAGGGAGG | 0.966 ± 0.053
TGTAGGGGGG | 0.973 ± 0.034
TGTAGGGTAG | 0.958 ± 0.017
TGTAGGGTGC | 1.07 ± 0.044
TGTAGTCCGT | 0.982 ± 0.0055
TGTAGTGAGT | 0.959 ± 0.037

Sequence | switch fluorescence ratio
TGTAGTGTTT | 1.03 ± 0.044
TGTATAAATT | 0.9679 ± 0.0048
TGTATAATGT | 0.985 ± 0.029
TGTATCATGT | 0.99 ± 0.037
TGTATGAGCA | 1.02 ± 0.011
TGTATGGGAA | 0.9352 ± 0.0043
TGTATTAAAG | 0.983 ± 0.029
TGTATTTAGA | 1.02 ± 0.032
TGTATTTGGG | 0.991 ± 0.013
TGTATTTTTT | 1.05 ± 0.093
TGTCAATTGG | 0.984 ± 0.021
TGTCAGAAAT | 0.992 ± 0.02
TGTCCTAGAG | 1.02 ± 0.024
TGTCCTCAGC | 1.51 ± 0.14
TGTCCTTAAA | 0.9898 ± 0.0039
TGTCGCGTAG | 0.993 ± 0.034
TGTCGCTCGT | 0.992 ± 0.043
TGTCGTCGGG | 0.995 ± 0.026
TGTCGTTGGA | 0.998 ± 0.043
TGTCGTTTTT | 1.01 ± 0.039
TGTCTAGTTA | 0.972 ± 0.0041
TGTCTCCCTT | 1.007 ± 0.0074
TGTGAAAGTG | 0.982 ± 0.041

Sequence | switch fluorescence ratio
TGTGAATCAG | 1.018 ± 0.0075
TGTGACAGTT | 1.09 ± 0.1
TGTGACGGAC | 1.12 ± 0.015
TGTGACTCGG | 0.978 ± 0.016
TGTGAGACTT | 1.01 ± 0.052
TGTGAGGCGT | 0.993 ± 0.0036
TGTGATTAGG | 0.996 ± 0.03
TGTGCCAGGG | 1.06 ± 0.024
TGTGCCTGTT | 1.008 ± 0.0018
TGTGGAAAGA | 0.992 ± 0.054
TGTGGCAAAA | 1.015 ± 0.01
TGTGGCACGG | 0.966 ± 0.018
TGTGGCATGA | 0.9736 ± 0.0058
TGTGGCCCAC | 0.989 ± 0.017
TGTGGCGGTT | 1.015 ± 0.0077
TGTGGGAAAA | 1.02 ± 0.048
TGTGGGATCG | 0.97 ± 0.02
TGTGGGGGAA | 1.2 ± 0.31
TGTGGGGGTC | 0.965 ± 0.042
TGTGGGGTGG | 0.999 ± 0.025
TGTGGGTCGG | 0.968 ± 0.026
TGTGGGTGGT | 1.01 ± 0.018
TGTGGTAGCC | 1.022 ± 0.0018

Sequence | switch fluorescence ratio
TGTGGTATGG | 1.008 ± 0.0065
TGTGGTGTGC | 1.01 ± 0.022
TGTGGTTGCG | 1.01 ± 0.017
TGTGGTTTAC | 0.978 ± 0.017
TGTGTAAGAG | 0.9867 ± 0.0063
TGTGTAAGGT | 1.02 ± 0.025
TGTGTATGGC | 1.12 ± 0.19
TGTGTCGGTC | 1.07 ± 0.085
TGTGTGCGCG | 1.02 ± 0.043
TGTGTGGTGT | 0.993 ± 0.036
TGTGTTAAGG | 0.973 ± 0.011
TGTGTTAATA | 0.966 ± 0.013
TGTGTTAGGG | 0.979 ± 0.049
TGTGTTAGTA | 0.9602 ± 0.0053
TGTGTTCTAG | 1.005 ± 0.0046
TGTGTTGATG | 1.01 ± 0.028
TGTGTTGGGA | 0.98 ± 0.016
TGTGTTGGTG | 1.02 ± 0.033
TGTGTTGGTT | 0.9939 ± 0.0073
TGTGTTTCAA | 1.03 ± 0.013
TGTGTTTCTG | 1.02 ± 0.019
TGTGTTTTCT | 0.9862 ± 0.003
TGTGTTTTTT | 0.999 ± 0.02

Sequence | switch fluorescence ratio
TGTTAAAAAC | 1.082 ± 0.0085
TGTTAAAAAT | 1.01 ± 0.029
TGTTAAAATC | 0.984 ± 0.058
TGTTAAAGCG | 1.06 ± 0.049
TGTTAAAGGA | 0.991 ± 0.022
TGTTAAATGT | 1.005 ± 0.01
TGTTAAGATA | 1.02 ± 0.092
TGTTACCAGC | 1.01 ± 0.014
TGTTACGATA | 1.1181 ± 0.00041
TGTTAGGATT | 0.997 ± 0.014
TGTTAGGTGA | 1.07 ± 0.011
TGTTAGTGGT | 1.01 ± 0.023
TGTTATAATC | 1.08 ± 0.064
TGTTATAGAT | 0.987 ± 0.025
TGTTATAGTT | 1.01 ± 0.055
TGTTATATAT | 0.993 ± 0.032
TGTTATCAGC | 1 ± 0.047
TGTTATGTCC | 1 ± 0.023
TGTTATTTCA | 1.02 ± 0.0065
TGTTCATATA | 1.01 ± 0.021
TGTTCCGGGG | 1.013 ± 0.0063
TGTTCGGCGG | 1.02 ± 0.036
TGTTCTAAAG | 0.997 ± 0.025

Sequence | switch fluorescence ratio
TGTTCTAGA | 0.987 ± 0.053
TGTTCTGGGG | 1.01 ± 0.019
TGTTGAAATC | 1.01 ± 0.076
TGTTGAGCAT | 1.09 ± 0.089
TGTTGCAATA | 1.24 ± 0.4
TGTTGCATAG | 1.01 ± 0.047
TGTTGCGTGC | 1.03 ± 0.038
TGTTGGAGAA | 0.988 ± 0.011
TGTTGGAGTG | 1.003 ± 0.0044
TGTTGGCCAG | 0.9797 ± 0.0075
TGTTGGCGGG | 0.989 ± 0.015
TGTTGGGATG | 1.01 ± 0.02
TGTTGGGCTC | 0.989 ± 0.047
TGTTGGGGAT | 0.983 ± 0.029
TGTTGGGGGC | 1.03 ± 0.12
TGTTGGGTTG | 0.999 ± 0.015
TGTTGGTTAG | 0.989 ± 0.014
TGTTGGTTGC | 0.988 ± 0.033
TGTTGTATAA | 1.2 ± 0.26
